{"source": "patent US20240092884A1", "about": "(CHILDREN S HOSPITAL OF FUDAN UNIVERSITY, published 2024)", "molecules": {"B1": {"name": "anti-ANGPTL3 monoclonal antibody (prepared in Example 2) (antibody, IgG1, V domains shown)", "VH": "QVQLKESGPGLVAPSQSLSITCTVSGFSLTTYGVSWVRQPPGKGLEWLGVIWGDGNTNYHSALISRLSISKDNSKSQVFLKLNSLQTDDTATYYCAKGGPYGNYVPFDYWGQGTTLTVSS", "VL": "DIVLTQSPASLAVSLGQRATISCRASESVDSYGNSFMHWYQQKPGQPPKLLIYRASNLESGIPARFSGSGSRTDFTLTINPVEADDVATYYCQQSDEEPPTFGGGTNLEIK", "notes": "Recombinant antibody expressed transiently in ExpiCHO-S cells; also called anti-ANGPTL3-FLD mAb; mAb"}, "B2": {"name": "ANGPTL3-FLD-biotin (ligand)", "chain": "RIDQDNSSFDSLSPEPKSRFAMLDDVKILANGLLQLGHGLKDFVHKTKGQINDIFQKLNIFDQSFYDLSLQTSEIKEEEKELRRTTYKLQVKNEEVKNMSLELNSKLESLLEEKILLQQKVKYLEEQLTNLIQNQPETPEHPEVTSLKTFVEKQDNSIKDLLQTVEDQYKQLNQQHSQIKEIENQLRRTSIQEPTEISLSSKPRAPRTTPFLQLNEIRNVKHDGIPAECTTIYNRGEHTSGMYAIRPSNSQVFHVYCDVISGSPWTLIQHRIDGSQNFNETWENYKYGFGRLDGEFWLGLEKIYSIVKQSNYVLRIELEDWKDNKHYIEYSFYLGNHETNYTLHLVAITGNVPNAIPENKDLVFSTWDHKAKGHFNCPEGYSGGWWWHDECGENNLNGKYNKPRAKSKPERRRGLSWKSQNGRLYSIKSTKMLIHPTDSESFEHHHHHHHHHH", "modifications": "biotin-labeled (sites not given)", "notes": "also called ANGPTL3-Biotin; Biotin-ANGPTL3-FLD"}}, "key": {"[1]": {"target": "human ANGPTL3 protein (SEQ ID No. 19) (human) (UniProt Q9Y5C1)", "assay": "indirect ELISA, negative control supernatant, column A (taken as plate-coated ANGPTL3 of SEQ ID No. 19)"}, "ANGPTL3-FLD-biotin": {"target": "B2", "assay": "competitive ELISA: antibody titrated in 0.16 µg/mL ANGPTL3-FLD-biotin, blocking its binding to plate-coated integrin αvβ3", "description": "(§1) Integrin αvβ3 is a key receptor for ANGPTL3-FLD to act on podocytes and mediate podocyte damage. Therefore, in order to evaluate the biological activity of the anti-ANGPTL3 monoclonal antibody, a competitive ELISA experiment was designed to evaluate the activity of the anti-ANGPTL3 monoclonal antibody blocking the interaction between ANGPTL3-FLD and integrin αvβ3. In the competitive experiment of the anti-ANGPTL3 monoclonal antibody blocking the interaction between ANGPTL3-FLD and integrin αvβ3, ANGPTL3-FLD was biotin-labeled, and the lowest saturated concentration of ANGPTL3-FLD-biotin binding to integrin αvβ3 was determined as 0.16 μg/mL by ELISA (as shown in FIG. 3A). The anti-ANGPTL3 monoclonal antibody was serially diluted with 0.16 μg/mL ANGPTL3-FLD-biotin solution as a diluent to obtain a series of concentrations. Theoretically, ANGPTL3-FLD-biotin can saturate integrin αvβ3 on a solid support in the absence of monoclonal antibody. However, when the epitope of ANGPTL3-FLD recognized by the monoclonal antibody overlaps with the epitope of ANGPTL3-FLD binding to integrin αvβ3, the antibody may compete with integrin αvβ3 for binding to ANGPTL3-FLD-biotin, so that ANGPTL3-FLD-biotin cannot bind to integrin αvβ3 on the solid support.\n2. Detect a Half-Maximal Inhibitory Concentration of Anti-ANGPTL3-FLD mAb [0098] […]"}, "[2]": {"target": "T1, human ANGPTL3 protein (SEQ ID No. 19) (human, UniProt Q9Y5C1 18-460, limits assumed)", "T1 construct": "also called ANGPTL3-FLD; protein (immunogen)", "T1 sequence": "B2 chain", "assay": "SPR, Biacore T200, ANGPTL3 amine-coupled on a CM5 chip (852 RU), antibody injected at 6.25-800 nM, 25 °C, HBS-EP", "method": "Angptl3 was immobilized on a CM5 sensor chip (Biacore T200, BR18010468 (GE Healthercare)) at 25° C. with HBS-EP as a running buffer (10 mM HEPES, 150 mM NaCl, 3 mM EDTA, 0.05% P20, pH 7.4). Flow cells 1 and 4 were activated on the surface of the sensor chip with fresh and mixed NHS (50 mmol/L) and EDC (200 mmol/L) for 420 s (10 μL/min). Then, Angptl3 diluted in 10 mmol/L NaAC (pH 5.0) waccording tojected into the flow cell 4 to achieve binding of about 852 Response Unit. In addition, Fc1 was set to blank. After the amine coupling reaction, 1 mol/L ethanolamine hydrochloride (pH 8.5) waccording tojected for 420 s to block the remaining active coupling sites on the chip surface.\nThe detection was carried out at 25° C. with HBS-EP as a running buffer. The anti-ANGPTL3 monoclonal antibody (prepared in Example 2) waccording tojected onto the surfaces of flow cells 1, 2, 3, and 4 as an association stage, and then the running buffer waccording tojected as a dissociation stage.\nAll data were processed using Biacore T200 evaluation software version 3.1. The flow cell 1 was used as a double reference for the subtractive response unit. For the detection results of the affinity of the anti-ANGPTL3 antibody to the ANGPTL3 protein, refer to FIG. 2."}, "[3]": {"target": "T2, Integrin αvβ3 recombinant protein (R&D, 3050-AV-050) (UniProt P06756 31-992; P05106 27-718)", "T2 construct": "Bought heterodimer", "T2 sequence (P06756 31-992, chain 1 of 2)": "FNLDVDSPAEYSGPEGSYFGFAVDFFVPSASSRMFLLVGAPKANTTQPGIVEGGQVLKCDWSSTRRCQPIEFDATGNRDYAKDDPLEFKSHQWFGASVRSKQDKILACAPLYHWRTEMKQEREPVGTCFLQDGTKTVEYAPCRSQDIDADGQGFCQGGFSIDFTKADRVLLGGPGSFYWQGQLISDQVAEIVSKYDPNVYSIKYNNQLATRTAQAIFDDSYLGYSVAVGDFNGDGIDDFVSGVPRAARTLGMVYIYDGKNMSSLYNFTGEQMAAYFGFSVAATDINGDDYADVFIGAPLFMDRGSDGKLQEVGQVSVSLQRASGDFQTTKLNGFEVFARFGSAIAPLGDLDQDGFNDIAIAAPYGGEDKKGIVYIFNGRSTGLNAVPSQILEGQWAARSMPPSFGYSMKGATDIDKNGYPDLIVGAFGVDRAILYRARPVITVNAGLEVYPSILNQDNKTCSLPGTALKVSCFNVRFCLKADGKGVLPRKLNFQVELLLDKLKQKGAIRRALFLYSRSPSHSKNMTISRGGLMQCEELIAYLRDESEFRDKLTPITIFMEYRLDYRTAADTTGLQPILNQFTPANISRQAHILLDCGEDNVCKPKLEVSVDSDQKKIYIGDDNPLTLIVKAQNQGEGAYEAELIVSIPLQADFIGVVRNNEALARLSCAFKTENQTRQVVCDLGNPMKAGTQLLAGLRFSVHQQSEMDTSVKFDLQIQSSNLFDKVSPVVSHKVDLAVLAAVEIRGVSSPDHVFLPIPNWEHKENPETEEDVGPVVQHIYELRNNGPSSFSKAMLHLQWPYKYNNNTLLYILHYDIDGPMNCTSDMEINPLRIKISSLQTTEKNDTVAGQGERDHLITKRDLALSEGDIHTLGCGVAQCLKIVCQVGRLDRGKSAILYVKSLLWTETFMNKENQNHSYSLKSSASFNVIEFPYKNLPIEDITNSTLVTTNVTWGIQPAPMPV", "T2 sequence (P05106 27-718, chain 2 of 2)": "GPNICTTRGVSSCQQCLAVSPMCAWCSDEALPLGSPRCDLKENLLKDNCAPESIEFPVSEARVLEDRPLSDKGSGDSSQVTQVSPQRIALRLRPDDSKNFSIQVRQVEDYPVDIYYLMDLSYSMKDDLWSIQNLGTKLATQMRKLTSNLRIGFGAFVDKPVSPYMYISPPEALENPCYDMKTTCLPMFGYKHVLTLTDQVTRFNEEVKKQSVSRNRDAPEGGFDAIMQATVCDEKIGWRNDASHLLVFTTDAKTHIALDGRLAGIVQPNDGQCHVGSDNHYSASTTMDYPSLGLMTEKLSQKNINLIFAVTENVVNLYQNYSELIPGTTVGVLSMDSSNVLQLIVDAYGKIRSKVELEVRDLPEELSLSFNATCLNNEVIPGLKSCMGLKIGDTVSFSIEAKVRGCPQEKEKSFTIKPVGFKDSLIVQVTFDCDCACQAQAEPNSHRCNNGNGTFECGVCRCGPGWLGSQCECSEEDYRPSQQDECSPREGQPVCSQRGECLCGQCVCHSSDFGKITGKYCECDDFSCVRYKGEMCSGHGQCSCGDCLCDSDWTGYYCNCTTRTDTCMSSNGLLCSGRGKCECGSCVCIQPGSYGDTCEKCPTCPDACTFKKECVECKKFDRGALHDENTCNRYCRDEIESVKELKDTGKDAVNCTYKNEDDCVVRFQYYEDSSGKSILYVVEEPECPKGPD", "assay": "ELISA: integrin αvβ3 coated at 1 µg/mL, ANGPTL3-FLD-biotin titrated, detected with peroxidase-labeled streptavidin, OD450", "description": "as §1, with “Therefore,” for “Integrin αvβ3 is a key receptor for ANGPTL3-FLD to act on podocytes and mediate podocyte damage. Therefore,”\n1. Plot a Curve of the Binding of Integrin αvβ3/ANGPTL3 [0093] […]"}}}
{"molecule": "Negative Control Supernatant", "values": [{"measurement": "OD 450", "setting": "[1]", "value": 0.195, "unit": "OD450"}]}
{"molecule": "B1", "values": [{"measurement": "EC50", "setting": "ANGPTL3-FLD-biotin", "value": 1.57, "unit": "µg/mL"}, {"measurement": "Kd", "setting": "[2]", "value": 84.8, "unit": "nM"}, {"measurement": "koff", "setting": "[2]", "value": 0.00142, "unit": "s⁻¹"}, {"measurement": "kon", "setting": "[2]", "value": 16700, "unit": "M⁻¹ s⁻¹"}]}
{"molecule": "B2", "values": [{"measurement": "EC50 (read off the curve)", "setting": "[3]", "value": "~0.01", "unit": "µg/mL"}]}
